Assay [1] has as its target TSP-1 protein (novoprotein, Catalog No. CU45), P07996. Briefly: competition ELISA, TSP-1 coated, CD36-Fc as competitor, peptide 0-100 µM. For orientation: ELISA stands for enzyme-linked immunosorbent assay.
The target is the same in assay [2]. Briefly: competition ELISA, TSP-1 coated, CD36-Fc 0.25 µg/mL as competitor, peptide 100 µM.
Assay [3] has as its target TSP-1 protein expressed by PMA-differentiated THP-1 macrophage-like cells, P07996. As to the kind of experiment: cell-based or functional assay.

The record followed here is patent US20250388623A1, “PEPTIDE INHIBITOR AND USE THEREOF” (CHENGDU BRILLIANT INSPIRATION BIOTHERAPEUTICS CO., LTD, priority 2022, published 2025).

Chain of TSP-1 protein (novoprotein, Catalog No. CU45), P07996 (P07996 19-1170 limits assumed): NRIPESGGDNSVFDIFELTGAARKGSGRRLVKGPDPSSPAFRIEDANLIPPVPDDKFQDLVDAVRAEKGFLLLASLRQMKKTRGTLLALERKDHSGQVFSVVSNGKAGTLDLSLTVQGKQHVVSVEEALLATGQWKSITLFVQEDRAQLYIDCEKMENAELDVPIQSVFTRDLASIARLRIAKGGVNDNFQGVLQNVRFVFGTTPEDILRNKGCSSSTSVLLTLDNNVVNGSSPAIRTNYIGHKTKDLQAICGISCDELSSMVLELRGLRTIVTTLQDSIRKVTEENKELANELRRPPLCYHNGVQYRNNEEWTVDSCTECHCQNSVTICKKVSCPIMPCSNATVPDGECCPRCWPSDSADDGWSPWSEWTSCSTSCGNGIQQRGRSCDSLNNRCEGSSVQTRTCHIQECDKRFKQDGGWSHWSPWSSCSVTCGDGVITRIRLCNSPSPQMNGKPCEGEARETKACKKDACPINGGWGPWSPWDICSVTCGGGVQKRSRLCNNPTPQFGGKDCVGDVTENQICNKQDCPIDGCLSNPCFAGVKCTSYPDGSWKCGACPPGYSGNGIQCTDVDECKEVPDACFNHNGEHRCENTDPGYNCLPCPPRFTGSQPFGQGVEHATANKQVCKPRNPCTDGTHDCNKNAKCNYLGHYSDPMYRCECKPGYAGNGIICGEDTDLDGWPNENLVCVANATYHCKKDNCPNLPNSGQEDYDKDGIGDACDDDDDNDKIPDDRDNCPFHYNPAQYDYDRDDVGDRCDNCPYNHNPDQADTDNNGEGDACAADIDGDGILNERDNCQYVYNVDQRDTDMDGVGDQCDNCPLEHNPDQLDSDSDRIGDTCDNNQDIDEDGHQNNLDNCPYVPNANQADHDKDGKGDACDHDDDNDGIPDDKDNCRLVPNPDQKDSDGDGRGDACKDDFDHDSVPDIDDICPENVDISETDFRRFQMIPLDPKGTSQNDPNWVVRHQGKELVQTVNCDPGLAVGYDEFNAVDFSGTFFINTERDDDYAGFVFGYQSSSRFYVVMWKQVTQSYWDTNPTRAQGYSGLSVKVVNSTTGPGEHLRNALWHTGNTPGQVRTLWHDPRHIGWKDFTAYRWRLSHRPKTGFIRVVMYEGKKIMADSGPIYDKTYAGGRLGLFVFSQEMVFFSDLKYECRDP
Chain of TSP-1 protein expressed by PMA-differentiated THP-1 macrophage-like cells, P07996 (P07996 19-1170 limits assumed): as above

Take TCDAEDNC (modifications not checked) [SEQ ID NO: 44]: the IC50 (in general, the concentration at which inhibition is half-maximal) in assay [1] was found to be 6.71 µM. In addition, the Blocking rate (Mean, %) in assay [2] was found to be 52.9%. Besides, the Mean (relative fluorescence intensity), 293-TGFβ Res reporter cells (ratio to negative control) in assay [3] was determined as 0.43.

TCDAEDNC (modifications not checked) [SEQ ID NO: 43]: the concentration for half-maximal inhibition (IC50) in assay [1] was 3.62 µM. The molecule also had a Blocking rate (Mean, %) in assay [2] of 52%. Besides, in assay [3], the Mean (relative fluorescence intensity), 293-TGFβ Res reporter cells (ratio to negative control) was 0.65.
